US20080125491A1 (ARENA PHARMACEUTICALS, published 2008)
Like-named read-outs stand apart in the source and are kept apart here.

Columns and labels:
Assay in all cases: cell-based or functional assay
[1] = molecular target: HA/V5 double tagged endogenous human FPRL2 (human)
[2] = molecular target: HA/V5 double-tagged endogenous human FPR (human) (UniProt P21462)
[3] = molecular target: HA/V5 double-tagged endogenous human FPRL1 (human) (UniProt P25090)
[4] = molecular target: T1, HA/V5 double tagged endogenous human FPRL2 (human)
T1 chain: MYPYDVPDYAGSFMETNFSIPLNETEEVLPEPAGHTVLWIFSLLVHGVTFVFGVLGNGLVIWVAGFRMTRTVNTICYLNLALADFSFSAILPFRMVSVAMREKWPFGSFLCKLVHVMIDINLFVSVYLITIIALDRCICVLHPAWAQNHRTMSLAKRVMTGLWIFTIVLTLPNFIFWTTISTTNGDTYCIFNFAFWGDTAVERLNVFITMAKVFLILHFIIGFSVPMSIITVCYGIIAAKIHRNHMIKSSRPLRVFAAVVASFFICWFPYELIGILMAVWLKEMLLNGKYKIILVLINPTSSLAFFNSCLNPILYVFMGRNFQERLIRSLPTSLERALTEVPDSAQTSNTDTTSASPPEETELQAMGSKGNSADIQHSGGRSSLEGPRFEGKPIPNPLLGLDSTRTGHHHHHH

Sequence of HA/V5 double-tagged endogenous human FPR (human) (P21462 other isoform, or with tags, fused parts or gaps): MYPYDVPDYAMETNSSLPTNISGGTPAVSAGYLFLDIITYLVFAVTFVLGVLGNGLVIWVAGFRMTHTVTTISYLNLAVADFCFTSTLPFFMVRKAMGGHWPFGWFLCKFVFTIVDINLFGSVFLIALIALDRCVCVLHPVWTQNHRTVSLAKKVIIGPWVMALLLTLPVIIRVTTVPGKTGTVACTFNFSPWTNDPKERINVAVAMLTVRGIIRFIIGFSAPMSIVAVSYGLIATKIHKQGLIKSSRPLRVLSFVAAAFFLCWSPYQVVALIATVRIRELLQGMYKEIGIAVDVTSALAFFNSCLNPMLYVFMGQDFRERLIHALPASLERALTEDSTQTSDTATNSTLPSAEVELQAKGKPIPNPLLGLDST
Sequence of HA/V5 double-tagged endogenous human FPRL1 (human) (P25090 other isoform, or with tags, fused parts or gaps): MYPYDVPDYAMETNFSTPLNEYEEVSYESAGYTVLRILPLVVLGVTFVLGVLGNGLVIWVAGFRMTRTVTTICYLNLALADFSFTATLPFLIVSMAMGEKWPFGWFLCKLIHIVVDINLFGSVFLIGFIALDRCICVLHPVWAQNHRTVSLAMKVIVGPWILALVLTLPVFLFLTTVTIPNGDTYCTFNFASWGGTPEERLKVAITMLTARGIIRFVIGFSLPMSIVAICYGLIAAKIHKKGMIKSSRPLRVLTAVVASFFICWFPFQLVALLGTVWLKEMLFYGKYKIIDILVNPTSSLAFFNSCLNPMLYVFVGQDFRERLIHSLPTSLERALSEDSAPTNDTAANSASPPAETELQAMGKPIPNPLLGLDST

[Gly14]-Humanin (peptide)
EC50, [35S]GTPγS binding to membranes of transiently transfected CHO cells [1]: 72 nM
[35S]GTPγS binding to membranes of transiently transfected CHO cells; highest dose without significant activity [2]: > 10 µM
EC50, [35S]GTPγS binding to membranes of transiently transfected CHO cells [3]: 1500 nM

B1: Humanin (peptide)
peptide: MAPRGFSCLLLLTSEIDLPVKRRA
EC50, [35S]GTPγS binding to membranes of transiently transfected CHO cells [4]: ~320 nM
EC50 of Humanin driven pigment aggregation in melanophore (Gi coupling) [4]: ~239 nM
